Data from patent KR20240007815A (dated 2024).
Substitutions are numbered along the chain they refer to. Values belong to the molecule of their own block, whether it stands above or below them.

Assays:
[1] = molecular target: 인간 BDCA-2 (Blood dendritic cell antigen 2, CLEC4C) (human) (UniProt Q8WTT0); assay: flow cytometry, double staining of human PBMC with anti-CD123 and anti-BDCA-2
[2] = molecular target: 인간 BDCA-2 (Blood dendritic cell antigen 2, CLEC4C) (human) (UniProt Q8WTT0); assay: flow cytometry, double staining of human PBMC with anti-CD123 and 201A
[3] = molecular target: T1, 인간 BDCA-2 (Blood dendritic cell antigen 2, CLEC4C) (human, UniProt Q8WTT0 1-213); assay: flow cytometry on 293 cells expressing human BDCA-2, anti-human IgG-APC secondary
T1 construct: whole, on cells; also called human BDCA-2
T1 sequence (looked up): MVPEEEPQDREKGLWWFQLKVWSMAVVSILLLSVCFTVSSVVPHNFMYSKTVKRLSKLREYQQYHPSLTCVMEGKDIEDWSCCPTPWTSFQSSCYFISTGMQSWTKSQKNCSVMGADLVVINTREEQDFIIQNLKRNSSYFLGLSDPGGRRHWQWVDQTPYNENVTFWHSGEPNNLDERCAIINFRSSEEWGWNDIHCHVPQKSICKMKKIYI

Molecule: anti-BDCA-2 (AC144, Miltenyi) (antibody)
% CD123+ BDCA-2+ 세포 (donor-1 PBMC) [1]: 0.51% | % CD123+ BDCA-2+ 세포 (donor-2 PBMC) [1]: 0.15%

B2: 201A 인간화 항체 201H (antibody, human IgG1, kappa, V domains shown)
VH: EVQLVESGGGLVKPGGSLRLSCAASGFTFSSYTMSWVRQAPGKGLEWVATISSGGSYTYYPDSVKGRFTISRDNAKNSLYLQMNSLRAEDTAVYYCTRDRGDYDYDEGYYFDYWGQGTLVTVSS
VL: DIVLTQSPASLAVSPGQRATITCRASASVDSYGNSFMHWYQQKPGQPPKLLIYLASNLESGVPARFSGSGSRTDFTLTINPVEANDTANYYCQQNNEDPRTFGGGTKVEIKR
notes: Humanised antibody made in Expi293 cells, purified on protein G; detected with anti-human IgG Fc
binding result [3]: binds

Second part, the molecule after the results:

% CD123+ BDCA-2+ 세포 (donor-1 PBMC) [2]: 0.65% | % CD123+ BDCA-2+ 세포 (donor-2 PBMC) [2]: 0.16%
B1: 인간 BDCA-2에 결합하는 마우스 단일클론 항체 201A (antibody, mouse IgG2a, kappa, V domains shown)
VH: DVKLVESGGGLVKPGGSLNLSCAASGFTFSSYTMSWVRQNPEKRLEWVATISSGGSYTYYPDSVKGRFTISRDNAKNTLYLQMSSLKSEDTAMYYCTRDRGDYDYDEGYYFDYWGQGTTLTVSS
VL: B2 VL with D1N, P15L, T22S, N80D, N85D, T87A, N89T, V108L

binding result [3]: binds
B3: 201A 키메라 항체 201C (antibody, human IgG1, kappa, V domains shown)
VH: B1 VH
VL: B2 VL with D1N, P15L, T22S, N80D, N85D, T87A, N89T, V108L
notes: Chimeric antibody made in Expi293 cells, purified on protein G; detected with anti-human IgG Fc
